From article PMC10531703

Molecular target: F10_Y11delinsLN mutant human γS-crystallin (human) (UniProt P22914)
Sequence (P22914 other isoform, or with tags, fused parts or gaps mutant): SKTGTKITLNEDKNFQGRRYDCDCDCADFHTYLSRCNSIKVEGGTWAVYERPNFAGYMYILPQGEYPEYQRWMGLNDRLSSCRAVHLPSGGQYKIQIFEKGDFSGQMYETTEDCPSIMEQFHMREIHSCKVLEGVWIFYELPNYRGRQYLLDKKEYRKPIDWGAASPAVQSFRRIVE

human αA-crystallin, sequence (P02489 whole entry): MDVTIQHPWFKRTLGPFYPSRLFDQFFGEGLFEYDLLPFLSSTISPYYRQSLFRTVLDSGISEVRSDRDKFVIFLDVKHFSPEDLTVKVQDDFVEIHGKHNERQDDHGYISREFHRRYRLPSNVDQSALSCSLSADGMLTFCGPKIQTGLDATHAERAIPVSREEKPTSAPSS

Substance: human αA-crystallin (from UniProt P02489 1-173) (natural protein)
- particle radius by dynamic light scattering, 30 to 60 °C; 1:1 molar ratio mixture (the mutant alone: 1063 nm radius after heating to 60 °C): 13.3 nm
